Key:
[1] = system: O=C(O)c1ccccc1[N+](=O)[O-]; experiment: purified protein, by the assay type; conditions: other: cofactor NADH; enzyme 1 uM
O=[N+]([O-])c1ccc(CO)cc1 = experiment: purified protein, by the assay type; conditions: other: cofactor NADH; enzyme 1 uM

Substance | Km [1] [mM] | Km (O=[N+]([O-])c1ccc(CO)cc1) [mM mM] | kcat (O=[N+]([O-])c1ccc(CO)cc1) [min-1 min-1]
Enterobacter cloacae nitroreductase (EntNFSB) variant EntNFSB-s1, S40A/T41I/F124A, SEQ ID NO: 38 (Enterobacter cloacae; F124A/S40A/T41I) | 4.05 | – | –
Enterobacter cloacae nitroreductase (EntNFSB), wild type, SEQ ID NO: 37 (Enterobacter cloacae) | – | 9.52 | 8.76

Source: patent US20210277441A1, “METHOD OF SELECTING A POLYPEPTIDE OF INTEREST” (IMPERIAL COLLEGE INNOVATIONS LIMITED, priority 2018, published 2021)
